Data set [1] has as its target T1, phycoerythrin (PE) β subunit of the Porphyridium purpureum phycobilisome (Porphyridium purpureum (endogenous in …, UniProt P11393 1-177, covalently attached open tetrapyrrole chromophores (sites not given))).
T1 construct: phycoerythrin beta subunit, Porphyridium purpureum (UTEX 2757); chain of the ML-PBS model PDB 7EZX, which was built from LL-PBS PDB 6KGX; also called β^PE; PE subunit
Put plainly: cryo-EM structure; intact ML-PBS isolated from P. purpureum on a sucrose gradient; 1.5 mg/mL, diluted on the grid with 50 mM Tris pH 8.0, 16 °C; overall resolution 3.04 Å, C2 symmetry. The settings on record: both partners purified.

Data set [2] concerns the molecule itself. The data set is described as above.

Two molecules from article PMC10682464, “The structural basis for light acclimation in phycobilisome light harvesting systems systems in Porphyridium purpureum” (Communications Biology, 2023) can be followed below.

B1: phycoerythrin (PE) α subunit of the Porphyridium purpureum phycobilisome (natural protein, UniProt P11392 1-164, looked up)
chain: MKSVITTVVSAADAAGRFPSNSDLESIQGNIQRSAARLEAAEKLAGNHEAVVKEAGDACFAKYAYLKNPGEAGENQEKINKCYRDVDHYMRLVNYDLVVGGTGPLDEWGIAGAREVYRTLNLPTSAYVASIAYTRDRLCVPRDMSAQAGVEFSAYLDYLINALS
modifications: covalently attached open tetrapyrrole chromophores (sites not given)
notes: phycoerythrin alpha subunit, Porphyridium purpureum (UTEX 2757); chain of the ML-PBS model PDB 7EZX, which was built from LL-PBS PDB 6KGX; also called α^PE; PE subunit
Regarding B1, the binding result in data set [1] is “binds”.

B2: αβ^PE monomer (phycoerythrin α and β subunits) of the Porphyridium purpureum phycobilisome (complex)
chain 1: B1 chain
chain 2: MLDAFSRVVVNSDAKAAYVGGSDLQALKSFIADGNKRLDAVNSIVSNASCMVSDAVSGMICENPGLISPGGNCYTNRRMAACLRDGEIILRYVSYALLAGDASVLEDRCLNGLKETYIALGVPTNSSIRAVSIMKAQAVAFITNTATERKMSFAAGDCTSLASEVASYFDRVGAAIS
modifications: covalently attached open tetrapyrrole chromophores (sites not given) | covalently attached open tetrapyrrole chromophores (sites not given)
notes: phycoerythrin alpha subunit, Porphyridium purpureum; as the chain of m1; phycoerythrin beta subunit, Porphyridium purpureum; as the chain of m2; The introduction says that (αβ) monomers assemble into trimers and hexamers; also called (αβ) monomer
Usually stoichiometry N stands for a count of units in the complex or per binding partner. As to B2, the “stoichiometry N” value in data set [2] is 6.
